By stoichiometry N is commonly meant the number of molecules, sites or subunits per partner or assembly.

This assay has as its target T1, p32 stably overexpressed from lentiviral pCDH-p32, Q07021.
T1 chain: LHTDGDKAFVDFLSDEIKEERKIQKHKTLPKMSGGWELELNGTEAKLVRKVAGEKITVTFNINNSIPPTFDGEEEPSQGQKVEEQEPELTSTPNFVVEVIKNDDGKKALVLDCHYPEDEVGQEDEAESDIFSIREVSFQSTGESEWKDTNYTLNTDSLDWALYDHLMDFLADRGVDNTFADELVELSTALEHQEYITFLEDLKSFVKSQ
Description: cross-linking; 786-O-pCDH and 786-O-p32 cells treated with gradients of elesclomol and CuSO4; 0.1 mM disuccinimidyl suberate (DSS) on cells, 30 minutes at room temperature, quenched with 50 mM Tris; 8% SDS-PAGE and western blot. Particulars: remark: other sources report otherwise. Background: A western blot detects proteins with antibodies after separation by electrophoresis.

B1: p32 stably overexpressed from lentiviral pCDH-p32, Q07021 74-282 (natural protein)
chain: T1 chain
In turn, B1 came in with a stoichiometry N of 2.

Values taken from paper PMC10758103.
